{"source": "paper PMC11514458", "key": {"RAD51 [1]": {"target": "T1, RAD51 (UniProt Q06609 1-339)", "T1 sequence (Q06609 whole entry)": "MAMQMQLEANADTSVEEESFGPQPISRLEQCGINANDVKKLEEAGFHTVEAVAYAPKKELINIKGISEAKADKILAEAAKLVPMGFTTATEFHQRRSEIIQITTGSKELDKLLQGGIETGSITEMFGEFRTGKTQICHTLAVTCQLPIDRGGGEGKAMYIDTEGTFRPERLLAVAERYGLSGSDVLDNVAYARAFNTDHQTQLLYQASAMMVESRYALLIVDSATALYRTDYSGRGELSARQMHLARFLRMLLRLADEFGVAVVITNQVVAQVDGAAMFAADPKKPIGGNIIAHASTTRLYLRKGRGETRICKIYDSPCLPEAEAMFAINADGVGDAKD", "assay": "stopped-flow fluorescence (Hill); Kd,1; ATP, Mg2+; EMSA: 20 mM Tris-HCl pH 7.5, 2 mM MgCl2, 2 mM ATP, 37 C, 20 nM DNA, glutaraldehyde fixation; stopped-flow: 25 mM Tris-HCl pH 7.5, 5 mM MgCl2, 50 mM KCl, 2 mM ATP, 0.5 mM EDTA, 10% glycerol, 37 C; BLI: 50 mM Tris-HCl pH 7.5, 2 mM ATP, 50 mM KCl, 5 mM MgCl2, 0.05% Tween 20, room temperature", "details": "protein: recombinant; chain copies: 10; label: Cy3 at 3' or 5'"}, "BCDX2 complex [2]": {"target": "T2, BCDX2 complex (human, UniProt O15315;O43502;O75771;O43543 1-384;1-376;1-328;1-280)", "T2 sequence 1": "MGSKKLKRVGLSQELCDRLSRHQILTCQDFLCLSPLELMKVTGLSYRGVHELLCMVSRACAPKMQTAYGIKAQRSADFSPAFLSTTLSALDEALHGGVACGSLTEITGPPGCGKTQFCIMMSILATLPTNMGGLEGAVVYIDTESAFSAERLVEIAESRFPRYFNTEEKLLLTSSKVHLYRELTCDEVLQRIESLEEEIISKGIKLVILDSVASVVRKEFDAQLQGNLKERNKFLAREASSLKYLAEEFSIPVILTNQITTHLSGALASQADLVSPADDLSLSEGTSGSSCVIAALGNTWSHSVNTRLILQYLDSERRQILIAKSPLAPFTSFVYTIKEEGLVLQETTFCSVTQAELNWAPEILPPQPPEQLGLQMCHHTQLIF", "T2 sequence 2": "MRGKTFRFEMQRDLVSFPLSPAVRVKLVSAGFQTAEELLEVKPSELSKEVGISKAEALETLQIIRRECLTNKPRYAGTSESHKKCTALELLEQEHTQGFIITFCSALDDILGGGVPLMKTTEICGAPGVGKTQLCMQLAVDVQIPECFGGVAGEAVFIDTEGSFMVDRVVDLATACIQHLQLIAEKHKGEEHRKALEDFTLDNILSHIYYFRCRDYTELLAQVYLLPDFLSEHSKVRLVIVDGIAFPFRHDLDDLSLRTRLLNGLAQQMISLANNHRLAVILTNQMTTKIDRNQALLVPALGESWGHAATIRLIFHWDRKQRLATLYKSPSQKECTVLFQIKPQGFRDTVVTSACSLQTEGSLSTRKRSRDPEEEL", "T2 sequence 3": "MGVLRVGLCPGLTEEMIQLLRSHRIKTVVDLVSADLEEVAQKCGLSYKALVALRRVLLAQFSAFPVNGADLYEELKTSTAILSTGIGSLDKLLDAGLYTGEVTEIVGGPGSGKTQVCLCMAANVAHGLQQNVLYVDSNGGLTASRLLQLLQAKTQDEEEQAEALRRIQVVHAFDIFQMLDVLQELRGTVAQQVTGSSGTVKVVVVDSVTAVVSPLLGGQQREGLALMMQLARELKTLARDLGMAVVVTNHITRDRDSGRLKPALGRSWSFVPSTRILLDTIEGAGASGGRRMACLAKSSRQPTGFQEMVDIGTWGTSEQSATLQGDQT", "T2 sequence 4": "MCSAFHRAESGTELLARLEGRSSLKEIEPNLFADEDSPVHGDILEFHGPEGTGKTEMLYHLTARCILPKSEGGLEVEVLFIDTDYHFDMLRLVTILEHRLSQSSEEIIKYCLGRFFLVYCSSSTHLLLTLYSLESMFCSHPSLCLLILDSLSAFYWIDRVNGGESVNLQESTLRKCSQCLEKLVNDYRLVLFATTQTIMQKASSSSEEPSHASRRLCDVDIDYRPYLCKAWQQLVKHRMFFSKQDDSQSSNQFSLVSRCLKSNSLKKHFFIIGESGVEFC", "assay": "stopped-flow fluorescence (total amplitude); Kd,net two-step; ATP, Mg2+; EMSA: 20 mM Tris-HCl pH 7.5, 2 mM MgCl2, 2 mM ATP, 37 C, 20 nM DNA, glutaraldehyde fixation; stopped-flow: 25 mM Tris-HCl pH 7.5, 5 mM MgCl2, 50 mM KCl, 2 mM ATP, 0.5 mM EDTA, 10% glycerol, 37 C; BLI: 50 mM Tris-HCl pH 7.5, 2 mM ATP, 50 mM KCl, 5 mM MgCl2, 0.05% Tween 20, room temperature", "details": "protein: recombinant; tags: Strep-tag and His-tag (XRCC2 N-terminal His); copies: 1;1;1;1; label: Cy3 at 3' or 5'"}, "BCDX2 complex [3]": {"target": "T2, BCDX2 complex", "assay": "stopped-flow fluorescence (amplitude, A1); Kd,1 initial complex; ATP, Mg2+; EMSA: 20 mM Tris-HCl pH 7.5, 2 mM MgCl2, 2 mM ATP, 37 C, 20 nM DNA, glutaraldehyde fixation; stopped-flow: 25 mM Tris-HCl pH 7.5, 5 mM MgCl2, 50 mM KCl, 2 mM ATP, 0.5 mM EDTA, 10% glycerol, 37 C; BLI: 50 mM Tris-HCl pH 7.5, 2 mM ATP, 50 mM KCl, 5 mM MgCl2, 0.05% Tween 20, room temperature", "details": "protein: recombinant; tags: Strep-tag and His-tag (XRCC2 N-terminal His); copies: 1;1;1;1; label: Cy3 at 3' or 5'"}, "RAD51 [4]": {"target": "T1, RAD51", "assay": "stopped-flow fluorescence (global fit); RAD51 without BCDX2; ATP, Mg2+; EMSA: 20 mM Tris-HCl pH 7.5, 2 mM MgCl2, 2 mM ATP, 37 C, 20 nM DNA, glutaraldehyde fixation; stopped-flow: 25 mM Tris-HCl pH 7.5, 5 mM MgCl2, 50 mM KCl, 2 mM ATP, 0.5 mM EDTA, 10% glycerol, 37 C; BLI: 50 mM Tris-HCl pH 7.5, 2 mM ATP, 50 mM KCl, 5 mM MgCl2, 0.05% Tween 20, room temperature", "details": "protein: recombinant; chain copies: 10; label: Cy3 at 3' or 5'"}, "BCDX2 complex [5]": {"target": "T2, BCDX2 complex", "assay": "stopped-flow fluorescence (global fit); initial complex k1/k-1; 2 mM ATP, 5 mM Mg2+; EMSA: 20 mM Tris-HCl pH 7.5, 2 mM MgCl2, 2 mM ATP, 37 C, 20 nM DNA, glutaraldehyde fixation; stopped-flow: 25 mM Tris-HCl pH 7.5, 5 mM MgCl2, 50 mM KCl, 2 mM ATP, 0.5 mM EDTA, 10% glycerol, 37 C; BLI: 50 mM Tris-HCl pH 7.5, 2 mM ATP, 50 mM KCl, 5 mM MgCl2, 0.05% Tween 20, room temperature", "details": "protein: recombinant; tags: Strep-tag and His-tag (XRCC2 N-terminal His); copies: 1;1;1;1; label: Cy3 at 3' or 5'"}, "RAD51;BCDX2 complex": {"target": "RAD51;BCDX2 complex (human?;human, UniProt Q06609;O15315;O43502;O75771;O43543 1-339;1-384;1-376;1-328;1-280, |)", "sequence (Q06609 whole entry, one chain of several)": "as the sequence (Q06609 whole entry) above", "assay": "stopped-flow fluorescence (global fit); RAD51 binding in presence of BCDX2; ATP, Mg2+; EMSA: 20 mM Tris-HCl pH 7.5, 2 mM MgCl2, 2 mM ATP, 37 C, 20 nM DNA, glutaraldehyde fixation; stopped-flow: 25 mM Tris-HCl pH 7.5, 5 mM MgCl2, 50 mM KCl, 2 mM ATP, 0.5 mM EDTA, 10% glycerol, 37 C; BLI: 50 mM Tris-HCl pH 7.5, 2 mM ATP, 50 mM KCl, 5 mM MgCl2, 0.05% Tween 20, room temperature", "details": "protein: recombinant;recombinant; tags: ;Strep-tag and His-tag (XRCC2 N-terminal His); copies: 1;1;1;1;1; label: Cy3 at 3' or 5'"}, "RAD51 [6]": {"target": "T1, RAD51", "assay": "stopped-flow fluorescence (global fit); initial weak binding step; 2 mM ATP, 5 mM Mg2+; EMSA: 20 mM Tris-HCl pH 7.5, 2 mM MgCl2, 2 mM ATP, 37 C, 20 nM DNA, glutaraldehyde fixation; stopped-flow: 25 mM Tris-HCl pH 7.5, 5 mM MgCl2, 50 mM KCl, 2 mM ATP, 0.5 mM EDTA, 10% glycerol, 37 C; BLI: 50 mM Tris-HCl pH 7.5, 2 mM ATP, 50 mM KCl, 5 mM MgCl2, 0.05% Tween 20, room temperature", "details": "protein: recombinant; chain copies: 10; label: Cy3 at 3' or 5'"}}, "data": [{"binder": "TTTTTTTTTTTTTTTTTTTTTTTTTTTTTTTTTTTTTTTTTTT (ssDNA)", "note": "[Cy3-dT43]", "values": [{"measurement": "Kd", "setting": "RAD51 [1]", "result": "1600 ± 200", "unit": "nM"}, {"measurement": "Kd", "setting": "BCDX2 complex [2]", "result": "220 ± 20", "unit": "nM"}, {"measurement": "Kd", "setting": "BCDX2 complex [3]", "result": "310 ± 50", "unit": "nM"}, {"measurement": "Ka", "setting": "RAD51 [4]", "result": 0.026, "unit": "nM⁻¹"}, {"measurement": "Ka", "setting": "BCDX2 complex [5]", "result": 3.1, "unit": "µM⁻¹"}, {"measurement": "Ka", "setting": "RAD51;BCDX2 complex", "result": 0.064, "unit": "nM⁻¹"}, {"measurement": "Ka", "setting": "RAD51 [6]", "result": 0.09, "unit": "µM⁻¹"}]}]}
